Experimental data as given in FireProtDB (doi:10.1074/jbc.m304177200).

B1: Guanyl-specific ribonuclease Sa, P05798 (parent)
chain: DVSGTVCLSALPPEATDTLNLIASDGPFPYSQDGVVFQNRESVLPTQSYGYYHEYTVITPGARTRGTRRIITGEATQEDYYTGDHYATFSLIDQTC

Variants of: B1
Settings: Kitasatospora aureofaciens, pH 7, Thermal, CD, MOPS 30 mM, reversible: yes(>95%), structure 1RGG, whole UniProt chain shown; for ddG of mutation (higher = less stable): 48.4 °C

| Variant | ddG of mutation (higher = less stable) [kcal/mol] | Tm [°C] | change of melting temperature, mutant - wild type (higher = more stable) [°C] | unfolding enthalpy (van 't Hoff) [kcal/mol] |
| --- | --- | --- | --- | --- |
| V36T | 1.3 | 43.8 | -4.6 | 88 |
| T56V | 1.9 | 42.1 | -6.3 | 85 |
| T18V | 1.4 | 43.7 | -4.7 | 80 |
| T59V | 1.7 | 42.8 | -5.6 | 81 |
| T82V | 1.7 | 42.7 | -5.7 | 81 |
| T16V | -0.3 | 49.4 | 1 | 88 |
| T5V | 0 |  |  |  |
| T72V | 0.2 | 47.6 | -0.8 | 91 |
| V2T | 0.9 | 45.2 | -3.2 | 86 |
| T67V | 0 | 48.3 | -0.1 | 88 |
| V57T | 4.4 | 33.4 | -15 | 74 |
| V43T | 0.5 | 46.8 | -1.6 | 93 |
